Assay: melting temperature; melt of duplexes
Conditions: sodium 0.0675 M; strand 1 µM

Substance	Tm
CGACGTGCCGGATGTGCTG+CAGCACATGTGGCACGTCG (((((((((..((((((((+))))))))..)))))))))	57.3 °C
CGACGTGCCGGATGTGCTG+CAGCACATGTTGCACGTCG ((((((((...((((((((+))))))))...))))))))	48.1 °C
CGACGTGCCGGATGTGCTG+CAGCACATTAAGCACGTCG ((((((((...((((((((+))))))))...))))))))	50.4 °C
CGACGTGCCGGATGTGCTG+CAGCACATTCAGCACGTCG ((((((((.(.((((((((+)))))))).).))))))))	52.4 °C
CGACGTGCCGGATGTGCTG+CAGCACATTCGGCACGTCG ((((((((((.((((((((+)))))))).))))))))))	62.4 °C
CGACGTGCCGGATGTGCTG+CAGCACATTGAGCACGTCG ((((((((...((((((((+))))))))...))))))))	50.8 °C
CGACGTGCCGGATGTGCTG+CAGCACATTGCGCACGTCG ((((((((...((((((((+))))))))...))))))))	49.9 °C
CGACGTGCCGGATGTGCTG+CAGCACATTTCGCACGTCG ((((((((...((((((((+))))))))...))))))))	49.1 °C
CGACGTGCCGTATGTGCTG+CAGCACATACGGCACGTCG (((((((((((((((((((+)))))))))))))))))))	66.2 °C
CGACGTGCCGTATGTGCTG+CAGCACATACTGCACGTCG ((((((((.((((((((((+)))))))))).))))))))	56.9 °C
CGACGTGCCGTATGTGCTG+CAGCACATAGCGCACGTCG ((((((((..(((((((((+)))))))))..))))))))	52.7 °C
CGACGTGCCGTATGTGCTG+CAGCACATATCGCACGTCG ((((((((..(((((((((+)))))))))..))))))))	51.8 °C
CGACGTGCCGTATGTGCTG+CAGCACATCAAGCACGTCG ((((((((...((((((((+))))))))...))))))))	49.3 °C
CGACGTGCCGTATGTGCTG+CAGCACATCACGCACGTCG ((((((((...((((((((+))))))))...))))))))	51.2 °C
CGACGTGCCGTATGTGCTG+CAGCACATCAGGCACGTCG (((((((((..((((((((+))))))))..)))))))))	57.1 °C
CGACGTGCCGTATGTGCTG+CAGCACATCGTGCACGTCG ((((((((...((((((((+))))))))...))))))))	51 °C
CGACGTGCCGTATGTGCTG+CAGCACATCTAGCACGTCG ((((((((...((((((((+))))))))...))))))))	49.1 °C
CGACGTGCCGTATGTGCTG+CAGCACATCTGGCACGTCG (((((((((..((((((((+))))))))..)))))))))	55.3 °C
CGACGTGCCGTATGTGCTG+CAGCACATGAGGCACGTCG (((((((((..((((((((+))))))))..)))))))))	58.7 °C
CGACGTGCCGTATGTGCTG+CAGCACATGATGCACGTCG ((((((((...((((((((+))))))))...))))))))	49.2 °C
CGACGTGCCGTATGTGCTG+CAGCACATGCCGCACGTCG ((((((((.(.((((((((+)))))))).).))))))))	51.6 °C
CGACGTGCCGTATGTGCTG+CAGCACATGGAGCACGTCG ((((((((...((((((((+))))))))...))))))))	50.8 °C
CGACGTGCCGTATGTGCTG+CAGCACATGGCGCACGTCG ((((((((...((((((((+))))))))...))))))))	50.3 °C
CGACGTGCCGTATGTGCTG+CAGCACATGTAGCACGTCG ((((((((...((((((((+))))))))...))))))))	49.1 °C

Substance	Tm
CGACGTGCCGTATGTGCTG+CAGCACATGTCGCACGTCG ((((((((...((((((((+))))))))...))))))))	49 °C
CGACGTGCCGTATGTGCTG+CAGCACATTACGCACGTCG ((((((((...((((((((+))))))))...))))))))	50.9 °C
CGACGTGCCGTATGTGCTG+CAGCACATTAGGCACGTCG (((((((((..((((((((+))))))))..)))))))))	57.1 °C
CGACGTGCCGTATGTGCTG+CAGCACATTCAGCACGTCG ((((((((.(.((((((((+)))))))).).))))))))	50.1 °C
CGACGTGCCGTATGTGCTG+CAGCACATTGAGCACGTCG ((((((((...((((((((+))))))))...))))))))	49.8 °C
CGACGTGCCGTATGTGCTG+CAGCACATTGCGCACGTCG ((((((((...((((((((+))))))))...))))))))	49.3 °C
CGACGTGCCGTATGTGCTG+CAGCACATTGGGCACGTCG (((((((((..((((((((+))))))))..)))))))))	54.7 °C
CGACGTGCCGTATGTGCTG+CAGCACATTTAGCACGTCG ((((((((...((((((((+))))))))...))))))))	48.4 °C
CGACGTGCCGTATGTGCTG+CAGCACATTTCGCACGTCG ((((((((...((((((((+))))))))...))))))))	48.5 °C
CGACGTGCCGTATGTGCTG+CAGCACATTTTGCACGTCG ((((((((...((((((((+))))))))...))))))))	47.5 °C
CGACGTGCCTAATGTGCTG+CAGCACATAAAGCACGTCG ((((((((.(.((((((((+)))))))).).))))))))	50.3 °C
CGACGTGCCTAATGTGCTG+CAGCACATAGCGCACGTCG ((((((((...((((((((+))))))))...))))))))	50.3 °C
CGACGTGCCTAATGTGCTG+CAGCACATAGGGCACGTCG (((((((((..((((((((+))))))))..)))))))))	55.4 °C
CGACGTGCCTAATGTGCTG+CAGCACATAGTGCACGTCG ((((((((...((((((((+))))))))...))))))))	47.2 °C
CGACGTGCCTAATGTGCTG+CAGCACATATAGCACGTCG ((((((((...((((((((+))))))))...))))))))	49.6 °C
CGACGTGCCTAATGTGCTG+CAGCACATATCGCACGTCG ((((((((...((((((((+))))))))...))))))))	47 °C
CGACGTGCCTAATGTGCTG+CAGCACATCACGCACGTCG ((((((((.(.((((((((+)))))))).).))))))))	46.3 °C
CGACGTGCCTAATGTGCTG+CAGCACATCCAGCACGTCG ((((((((...((((((((+))))))))...))))))))	48.7 °C
CGACGTGCCTAATGTGCTG+CAGCACATCCGGCACGTCG (((((((((..((((((((+))))))))..)))))))))	52 °C
CGACGTGCCTAATGTGCTG+CAGCACATCCTGCACGTCG ((((((((...((((((((+))))))))...))))))))	47.9 °C
CGACGTGCCTAATGTGCTG+CAGCACATCGCGCACGTCG ((((((((...((((((((+))))))))...))))))))	47 °C
CGACGTGCCTAATGTGCTG+CAGCACATCTAGCACGTCG ((((((((...((((((((+))))))))...))))))))	48.8 °C
CGACGTGCCTAATGTGCTG+CAGCACATGAAGCACGTCG ((((((((.(.((((((((+)))))))).).))))))))	51 °C
CGACGTGCCTAATGTGCTG+CAGCACATGCCGCACGTCG ((((((((...((((((((+))))))))...))))))))	48.5 °C

Substance	Tm
CGACGTGCCTAATGTGCTG+CAGCACATGCTGCACGTCG ((((((((...((((((((+))))))))...))))))))	46.9 °C
CGACGTGCCTAATGTGCTG+CAGCACATGGAGCACGTCG ((((((((...((((((((+))))))))...))))))))	51.9 °C
CGACGTGCCTAATGTGCTG+CAGCACATGTAGCACGTCG ((((((((...((((((((+))))))))...))))))))	51.8 °C
CGACGTGCCTAATGTGCTG+CAGCACATTAGGCACGTCG (((((((((((((((((((+)))))))))))))))))))	63.6 °C
CGACGTGCCTAATGTGCTG+CAGCACATTCCGCACGTCG ((((((((..(((((((((+)))))))))..))))))))	49.7 °C
CGACGTGCCTAATGTGCTG+CAGCACATTCGGCACGTCG (((((((((.(((((((((+))))))))).)))))))))	57 °C
CGACGTGCCTAATGTGCTG+CAGCACATTGCGCACGTCG ((((((((..(((((((((+)))))))))..))))))))	51 °C
CGACGTGCCTAATGTGCTG+CAGCACATTTAGCACGTCG ((((((((..(((((((((+)))))))))..))))))))	51.5 °C
CGACGTGCCTAATGTGCTG+CAGCACATTTTGCACGTCG ((((((((..(((((((((+)))))))))..))))))))	51.1 °C
CGACGTGCCTCATGTGCTG+CAGCACATACTGCACGTCG ((((((((...((((((((+))))))))...))))))))	47 °C
CGACGTGCCTCATGTGCTG+CAGCACATAGAGCACGTCG ((((((((...((((((((+))))))))...))))))))	51.6 °C
CGACGTGCCTCATGTGCTG+CAGCACATAGTGCACGTCG ((((((((...((((((((+))))))))...))))))))	45.9 °C
CGACGTGCCTCATGTGCTG+CAGCACATATAGCACGTCG ((((((((...((((((((+))))))))...))))))))	48.8 °C
CGACGTGCCTCATGTGCTG+CAGCACATATGGCACGTCG (((((((((..((((((((+))))))))..)))))))))	54 °C
CGACGTGCCTCATGTGCTG+CAGCACATCAAGCACGTCG ((((((((.(.((((((((+)))))))).).))))))))	47.9 °C
CGACGTGCCTCATGTGCTG+CAGCACATCACGCACGTCG ((((((((.(.((((((((+)))))))).).))))))))	46.1 °C
CGACGTGCCTCATGTGCTG+CAGCACATCAGGCACGTCG ((((((((((.((((((((+)))))))).))))))))))	55 °C
CGACGTGCCTCATGTGCTG+CAGCACATCATGCACGTCG ((((((((.(.((((((((+)))))))).).))))))))	47.2 °C
CGACGTGCCTCATGTGCTG+CAGCACATCCCGCACGTCG ((((((((...((((((((+))))))))...))))))))	46.5 °C
CGACGTGCCTCATGTGCTG+CAGCACATCCGGCACGTCG (((((((((..((((((((+))))))))..)))))))))	51.2 °C
CGACGTGCCTCATGTGCTG+CAGCACATCGAGCACGTCG ((((((((...((((((((+))))))))...))))))))	50 °C
CGACGTGCCTCATGTGCTG+CAGCACATCGCGCACGTCG ((((((((...((((((((+))))))))...))))))))	46.6 °C
CGACGTGCCTCATGTGCTG+CAGCACATCGTGCACGTCG ((((((((...((((((((+))))))))...))))))))	43 °C
CGACGTGCCTCATGTGCTG+CAGCACATCTGGCACGTCG (((((((((..((((((((+))))))))..)))))))))	52.7 °C

— the array DNA melting data of Ke et al.
